Results on five substances are retold here after publication PMC10716449.

For this data set, the target named is T1, ybbR-CENP-B-His6 (full length, JF549-labelled for smTIRF) (UniProt P07199).
T1 sequence: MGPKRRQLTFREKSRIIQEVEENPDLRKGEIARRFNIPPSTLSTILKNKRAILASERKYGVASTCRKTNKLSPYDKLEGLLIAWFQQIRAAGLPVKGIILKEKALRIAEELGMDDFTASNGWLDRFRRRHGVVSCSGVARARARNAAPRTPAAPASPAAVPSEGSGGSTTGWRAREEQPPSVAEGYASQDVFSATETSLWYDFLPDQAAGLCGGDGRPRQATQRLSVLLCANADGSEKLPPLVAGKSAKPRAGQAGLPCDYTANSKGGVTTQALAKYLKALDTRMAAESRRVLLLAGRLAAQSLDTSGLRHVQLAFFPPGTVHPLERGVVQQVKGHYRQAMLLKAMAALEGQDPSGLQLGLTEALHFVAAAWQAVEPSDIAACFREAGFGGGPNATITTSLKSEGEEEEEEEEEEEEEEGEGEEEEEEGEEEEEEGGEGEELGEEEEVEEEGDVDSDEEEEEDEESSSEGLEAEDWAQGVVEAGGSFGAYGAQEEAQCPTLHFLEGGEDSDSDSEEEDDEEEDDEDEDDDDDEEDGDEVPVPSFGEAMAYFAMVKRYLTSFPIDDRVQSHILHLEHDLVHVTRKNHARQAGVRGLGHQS
Kind of data set: single-molecule colocalization (smTIRF). The conditions noted are these: smTIRF: about 5 nM CENP-B, 150 mM salt, EMSA: 10 mM Tris pH 7.5, 130 mM KCl, 3.2% glucose, 30 min at room temperature. Background: A gel shift assay detects complexes by their altered migration in electrophoresis.

As for “GATCGGTCTCATAGCCTGGAGAATCCCGGTGCCGAGGCCGCTCAATTGGTCGTAGACAGCTCTAGCACCGCTTAAACGCACGTACGCGCTGTCCCCCGCGTTTTAACCGCCAAGGGGATTACTCCCTAGTCTCCAGGCACGTGTCAGATATATACATCCTGTCACACTGTGGATC (double strand) [H3 1x601 mononucleosome (no B-Box)]”, the binding signal (s (tau off,2)) (tau_off,1 3.4 s (51%), A2 49%, amino-C6-dT on reverse strand, 5% PAGE in 0.25x TBE) amounted to 15.2.
On to “GATCGGTCTCATAGCCTTCGTTGGAAACGGGAGAATCCCGGTGCCGAGGCCGCTCAATTGGTCGTAGACAGCTCTAGCACCGCTTAAACGCACGTACGCGCTGTCCCCCGCGTTTTAACCGCCAAGGGGATTACTCCCTAGTCTCCAGGCACGTGTCAGATATATACATCCTGTCACACTGTGGATC (double strand) [H3 1x601 BB mononucleosome]”, for which the binding signal (s (tau off,2)) (tau_off,1 6.87 s (66%), A2 34%, amino-C6-dT on reverse strand, 5% PAGE in 0.25x TBE) is 48.3.
With “CENP-A 12x601 chromatin fiber DA3BB (1 B-Box at N6)”, for the setting “150 mM KCl, tau_off,1 4.9 s (67%), A2 33%, amino-C6-dT, 5% PAGE in 0.25x …”, the binding signal (s (tau off,2)) amounted to 51.4.
As for “GATCGGTCTCATAGCCTTCGTTGGAAACGGGAGAATCCCGGTGCCGAGGCCGCTCAATTGGTCGTAGACAGCTCTAGCACCGCTTAAACGCACGTACGCGCTGTCCCCCGCGTTTTAACCGCCAAGGGGATTACTCCCTAGTCTCCAGGCACGTGTCAGATATATACATCCTGTCACACTGTGGATC (double strand) [CENP-A 1x601 BB mononucleosome]”, the binding signal (s (tau off,2)) (tau_off,1 6.8 s (51%), A2 49%, amino-C6-dT on reverse strand (smTIRF), 5% PAGE in 0.25x TBE) came out at 50.2.
For the substance “H3 12x601 chromatin fiber DA3BB (1 B-Box at N6)”, where the note is “150 mM KCl, tau_off,1 3.6 s (47%), A2 52%, amino-C6-dT, 5% PAGE in 0.25x …”, the binding signal (s (tau off,2)) was 17.6.
